Data on 9 molecules can be found in patent US20250197496A1 (EVOLVELMMUNE THERAPEUTICS, published 2025).

Assay [1] concerns the target T1, human CD3 epsilon (recombinant, plate-coated) (human, UniProt P07766 23-126).
T1 construct: also called CD3ε; Hu CD3 epsilon
The assay is described as follows: sandwich ELISA, plate coated with CD3ε, luminescence (RLU). (An ELISA detects its analyte on a solid surface through an enzyme-linked reagent.)

Another assay addresses EGFR (UniProt P00533 25-645, limits assumed). As to the kind of experiment: sandwich ELISA, plate coated with antigen (legend paragraph 82 names no antigen; EGFR taken as the antigen of the cetuximab arm), luminescence (RLU).
Assay [2] deals with T2, Human ULBP2 (recombinant) (human, UniProt Q9BZM5 26-217).
T2 construct: bought (R&D Systems) as ULBP2-Fc or ULBP2-His; also called recombinant ULBP2
T2 sequence: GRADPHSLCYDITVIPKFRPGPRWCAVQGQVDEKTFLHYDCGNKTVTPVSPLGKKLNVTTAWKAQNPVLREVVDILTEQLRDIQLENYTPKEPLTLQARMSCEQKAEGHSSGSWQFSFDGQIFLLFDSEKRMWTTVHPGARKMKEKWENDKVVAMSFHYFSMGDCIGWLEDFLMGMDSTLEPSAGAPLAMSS
The assay is described as follows: sandwich ELISA, plate coated with antigen (legend paragraph 82 names no antigen; ULBP2 taken as the antigen of this antibody's target arm), luminescence (RLU).

In assay [3] the target is T3, cynomolgus CD3 epsilon/delta heterodimer, biotin labeled (cynomolgus, UniProt Q95LI8 22-105, biotin labeled).
T3 construct: bought (Acro Biosystems); also called Cyno CD3e/d
The assay is described as follows: SPR, biotinylated CD3e/d on SA chip. (Surface plasmon resonance follows binding to a sensor surface in real time, without labels.)

Assay [4] has as its target T4, human CD3 epsilon/delta heterodimer, biotin labeled (human, UniProt P04234 22-105, biotin labeled).
T4 construct: bought (Acro Biosystems); also called Human CD3e/d
As to the kind of experiment: SPR, biotinylated CD3e/d on SA chip.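 Also: analytes injected over immobilized CD3 heterodimer, association 60-120 s and dissociation 120-420 s, rate and affinity constants obtained by fitting sensorgrams to a 1:1 binding model.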

Where a chain is given by its changes, count along the chain named.

T3 sequence (chain, as listed by the source mutant, chain 1 of 2): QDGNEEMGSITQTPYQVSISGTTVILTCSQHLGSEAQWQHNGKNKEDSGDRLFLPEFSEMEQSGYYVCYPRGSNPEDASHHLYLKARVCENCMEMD
T3 sequence (Q95LI8 22-105, stated change not applied, chain 2 of 2): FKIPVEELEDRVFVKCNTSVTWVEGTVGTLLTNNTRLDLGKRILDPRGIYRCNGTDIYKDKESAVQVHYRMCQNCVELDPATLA

B1: EIP0373 (bispecific antibody)
heavy 1: EVQLLESGGGLVQPGGSLKLSCAASGFTFNTYAMNWVRKAPGKGLEWVARIRSKYNNYATYYADSVKDRFTISRDDSKNTAYLQMNNLKTEDTAVYYCVRHGNFGNSYVSWFAYWGQGTLVTVSSASTKGPSVFPLAPSSKSTSGGTAALGCLVKDYFPEPVTVSWNSGALTSGVHTFPACLQSSGLYSLSSVVTVPSSSLGTQTYICNVNHKPSNTKVDKKVEPKSSDKTHTCPPCPAPEAAGAPSVFLFPPKPKDTLMISRTPEVTCVVVDVSHEDPEVKFNWYVDGVEVHNAKTKPREEQYNSTYRVVSVLTVLHQDWLNGKEYKCKVSNKALPAPIEKTISKAKGQPREPQVCTLPPSREEMTKNQVSLSCAVKGFYPSDIAVEWESNGQPENNYKTTPPVLDSDGSFFLVSKLTVDKSRWQQGNVFSCSVMHEALHNHYTQKSLSLSPG
light 1: ELVVTQEPSLTVSPGGTVTLTCRSSTGAVTTSNYANWVQDKPGQAPRGLIGGTNKRAPGTPARFSGSLLGGKAALTLSGVQPEDEAEYYCALWYSNLWVFGGGTKLTVLGQPKANPTVTLFPPSSEELQANKADLVCLISDFYPGAVTVAWKADGSPVKAGVETCKPSKQSNNKYAASSYLSLTPEQWKSHRSYSCQVTHEGSTVEKTVAPTESS
heavy 2: not shown
light 2: not shown
notes: IgG1 bispecific, pairing set D; also called EGFR(Cetuximab)-SP34; V373
For orientation: EC50 (read off the curve) means the concentration that produces a half-maximal response. Turning to B1, the “EC50 (read off the curve)” value (in assay [1]; in the assay with EGFR) was roughly 0.3 µg/mL throughout.

B2: EIP0506 (bispecific antibody, human IgG1, kappa, lambda)
heavy 1: B1 heavy 1
light 1: B1 light 1
heavy 2: QVQLVQSGAEVKKPGSSVKVSCKASGGTFSNYWMHWVRDAPGQGLEWMGATYRGHSDTYYNQKFKGRVTITADKSTSTAYMELSSLRSEDTAVYYCARGAIYDGYDVLDNWGQGTLVTVSSASTKGPSVFPLAPSSKSTSGGTAALGCLVDDYFPEPVTVSWNSGALTSGVHTFPAVLQSSGLYSLSSVVTVPSSSLGTQTYICNVNHKPSNTKVDKKVEPKSCDKTHTCPPCPAPEAAGAPSVFLFPPKPKDTLMISRTPEVTCVVVDVSHEDPEVKFNWYVDGVEVHNAKTKPREEQYNSTYRVVSVLTVLHQDWLNGKEYKCKVSNKALPAPIEKTISKAKGQPREPQVYTLPPCREEMTKNQVSLWCLVKGFYPSDIAVEWESNGQPENNYKTTPPVLDSDGSFFLYSKLTVDKSRWQQGNVFSCSVMHEALHNHYTQKSLSLSPG
light 2: not shown
notes: IgG1 bispecific, pairing set D; also called BCMA(Belantamab)-SP34; V506
On to B2, for which the “EC50 (read off the curve)” value in assay [1] was roughly 0.5 µg/mL.

B3: EIP0504 (bispecific antibody, V domains shown)
VH 1: EVQLLESGGGLVQPGGSLKLSCAASGFTFNTYAMNWVRKAPGKGLEWVARIRSKYNNYATYYADSVKDRFTISRDDSKNTAYLQMNNLKTEDTAVYYCVRHGNFGNSYVSWFAYWGQGTLVTVSS
VL 1: ELVVTQEPSLTVSPGGTVTLTCRSSTGAVTTSNYANWVQDKPGQAPRGLIGGTNKRAPGTPARFSGSLLGGKAALTLSGVQPEDEAEYYCALWYSNLWVFGGGTKLTVL
VH 2: EVQLVQSGAEVKKPGESLKISCKGSGYAFSTSWMNWVRQMPGKGLEWMGRIYPGDGDTNYNGNFKGQVTISADKSISTAYLQWSSLKASDTAMYYCARGGELRLEAMDSWGQGTLVTVSS
VL 2: EIVMTQSPATLSLSPGERITLSCSASSSIHSNYLHWYQQKPGQAPRLLIYRTSNLASGIPARFSGSGSGTDFTLTISSLQPEDFAVYYCQQGFSIPFTFGQGTKLEIK
notes: also called ULBP2(A06)-SP34; EV104.2:CD3.1
As for B3, the “EC50 (read off the curve)” value in assay [1] was roughly 0.4 µg/mL; in assay [2], roughly 0.6 µg/mL.

B4: ULBP2xCD3 bispecific CD58 fusion containing CD3 variant CD3-01 (bispecific antibody, V domains shown)
VH: B3 VH 1
VL: B3 VL 1
For orientation: Kd means the concentration at which binding is half-saturated. A high value points to a looser complex. Usually koff stands for the rate constant with which the complex falls apart. Read a high koff as a short-lived complex. For orientation: kon means the rate constant with which the complex forms. Read a low kon as slow association. In assay [3], B4 displayed a Kd of 3.2 nM, a koff of 0.00515 s⁻¹ and an association rate constant (kon) of 1.6e+06 M⁻¹ s⁻¹. In assay [4], binding was put at a Kd of 4.7 nM, the koff turned out to be 0.00819 s⁻¹ and the kon came out at 1.76e+06 M⁻¹ s⁻¹.

B5: ULBP2xCD3 bispecific CD58 fusion containing CD3 variant CD3-A6 (bispecific antibody, V domains shown)
VH: B3 VH 1 with T31D
VL: B3 VL 1
In assay [3], B5 displayed a Kd of 75 nM, a koff of 0.0418 s⁻¹ and a kon of 558000 M⁻¹ s⁻¹. In assay [4], this molecule yielded a Kd of 75 nM, a koff of 0.0479 s⁻¹ and a kon of 640000 M⁻¹ s⁻¹.

B6: ULBP2xCD3 bispecific CD58 fusion containing CD3 variant CD3-A5 (bispecific antibody, V domains shown)
VH: B3 VH 1 with N106D, S107D
VL: B3 VL 1 with N96Q
In assay [3], B6 registered a Kd of 368 nM, a koff of 0.0337 s⁻¹ and a kon of 91700 M⁻¹ s⁻¹. Moreover, in assay [4], the Kd came to 354 nM, the koff stood at 0.0245 s⁻¹ and the kon was determined as 69200 M⁻¹ s⁻¹.

B7: ULBP2xCD3 bispecific CD58 fusion containing CD3 variant CD3-A9 (bispecific antibody, V domains shown)
VH: B3 VH 1 with N103S
VL: B3 VL 1 with N96Q
In assay [3], B7 yielded a Kd of 212 nM, a koff of 0.0718 s⁻¹ and a kon of 338000 M⁻¹ s⁻¹. Moreover, in assay [4], binding was put at a Kd of 155 nM, the koff is 0.101 s⁻¹ and the kon stood at 654000 M⁻¹ s⁻¹.

B8: ULBP2xCD3 bispecific CD58 fusion containing CD3 variant CD3-A2 (bispecific antibody, V domains shown)
VH: B3 VH 1
VL: B3 VL 1 with G52D
In assay [3], B8 had a Kd of 89 nM, a koff of 0.0227 s⁻¹ and a kon of 256000 M⁻¹ s⁻¹. In assay [4], this molecule had a Kd of 102 nM, a koff of 0.0263 s⁻¹ and a kon of 257000 M⁻¹ s⁻¹.

B9: ULBP2xCD3 bispecific CD58 fusion containing CD3 variant CD3-A8 (bispecific antibody, V domains shown)
VH: B3 VH 1 with R50K, N106D
VL: B3 VL 1 with N96Q
For the molecule B9, in assay [3], binding was characterised by a dissociation constant (Kd) of 137 nM, the koff stood at 0.0614 s⁻¹ and the on-rate (kon) came out at 448000 M⁻¹ s⁻¹. In assay [4], this molecule gave a Kd of 147 nM, a koff of 0.0635 s⁻¹ and a kon of 432000 M⁻¹ s⁻¹.
